Reference: US11819552B2, “Antibody-drug conjugates targeting uPARAP” (RIGSHOSPITALET, priority 2016, dated 2023)
Entries after “also recorded” stand apart in the source; their conditions may differ.

Tests used:
U937 xenograft tumour [1] = assay: Subcutaneous uPARAP-positive U937 xenograft tumour model, treatment by s.c. injection; format: in vivo, CB17 SCID mice
Description: (§1) All animal experiments were performed under legal approval from The Danish Veterinary and Food Administration. All reagents and cell lines used for animal experiments were tested negative for the presence of murine viruses, bacteria, mycoplasma and fungi. Animals received standard of care, and were sacrificed upon any of the following signs: loss of more than 10% of body weight, visible distress or illness, compromised food—or water intake or defecation, signs of severe inflammation in the vicinity of tumours, or tumour growth which exceeded a volume of 1000 mm^3 or compromised the free movement of the animals. Tumour growth was measured using electronic calipers, and tumour volumes were calculated using the formula Volume=(LxW^2)/2, with L being the longest dimension of the tumour, and W being the width in the perpendicular dimension.
For tumour establishment, mice were shaved at the flank, and received a subcutaneous injection of 1×10^6 U937 cells, and then closely monitored in order to observe the development of solid tumours. […] All treatments were given as a total of 4 subcutaneous doses of 3 mg/kg mAb component in the tumour area, at 4 days intervals. Injections were performed under brief isoflurane anesthesia to avoid risks for the animal handler. During treatment, the tumours were evaluated every two days, until reaching a point of sacrifice. Mice which fully lost any tumour burden were checked two times a week for a period of 3 months after ending treatment.

[2] = target: T1, soluble truncated uPARAP protein containing the first 3 N-terminal domains of human uPARAP (Homo sapiens, UniProt Q9UBG0); assay: ELISA analysis of uPARAP-binding of mAbs; conditions: after reduction step of conjugation, or in ADC form
T1 construct: a soluble truncated uPARAP protein containing the first 3 N-terminal domains of human uPARAP
T1 sequence (Q9UBG0 31-365): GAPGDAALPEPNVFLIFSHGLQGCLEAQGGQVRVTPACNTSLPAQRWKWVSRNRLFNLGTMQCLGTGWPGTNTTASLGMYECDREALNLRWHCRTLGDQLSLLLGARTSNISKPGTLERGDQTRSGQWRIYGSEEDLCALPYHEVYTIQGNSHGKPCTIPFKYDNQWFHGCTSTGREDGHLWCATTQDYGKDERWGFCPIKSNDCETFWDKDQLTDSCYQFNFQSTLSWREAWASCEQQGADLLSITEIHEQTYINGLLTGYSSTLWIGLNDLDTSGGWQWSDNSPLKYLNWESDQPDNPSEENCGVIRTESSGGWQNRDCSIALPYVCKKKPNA
Description: Untreated mAbs (2h9 or aTNP), same mAbs subjected to the reduction procedure of conjugation (see above), or ADCs 2h9-vc-MMAE or aTNP-vc-MMAE, were then employed as a primary antibody, followed by a HRP-conjugated rabbit anti-mouse Ig secondary antibody. Finally an o-phenylenediamine dihydrochloride-containing substrate solution was added, and the color reaction was stopped by adding 1M H2SO4. Plates were read at 492 nm using a plate reader.

U937 xenograft tumour [3] = assay: Subcutaneous uPARAP-positive U937 xenograft tumour model, treatment by intravenous injection; format: in vivo, CB17 SCID mice
Description: as §1
For tumour establishment, mice were shaved at the flank, and received a subcutaneous injection of 1×10^6 U937 cells, and then closely monitored in order to observe the development of solid tumours. […] All treatments were given as a total of 3 intravenous doses of 5 mg/kg mAb component in the tail veins of the mice, at 4 days intervals. During treatment, the tumours were evaluated every two days, until reaching a point of sacrifice. Mice which fully lost any tumour burden were checked two times a week for a period of 3 months after ending treatment.

[4] = test system: CHO-K1 (receptor-negative cell line); assay: In vitro cytotoxicity of ADCs, cell viability assay (MTS); format: cell-based; conditions: 72 hours, 4-fold dilutions from 10 μg/mL ADC
Description: (§2) Cells tested were seeded at low density (20-25% confluence, generally 5-10×10^3 cells per well) in a 96 well plate in 90 μL of medium, and incubated overnight. […] Cells were incubated for 72 hours, before 20 μL of CellTiter 96 AQueous One Solution Cell Proliferation Assay (MTS, Promega) was added, and incubated for an appropriate time for formation of color (usually 1 hour). The plates were then read at 490 nm, with background subtraction at 630 nm, using a plate reader.

HT1080 cells [5] = assay: as above; format: cell-based; conditions: 72 hours, 4-fold dilutions from 10 μg/mL ADC, vs aTNP-vc-MMAE
Description: as §2

KNS42 cells [6] = assay: as above; format: cell-based; conditions: 72 hours, 4-fold dilutions from 10 μg/mL ADC, vs aTNP-vc-MMAE
Description: as §2

U937 cells [7] = assay: as above; format: cell-based; conditions: 72 hours, 4-fold dilutions from 10 μg/mL ADC (mAb component), vs aTNP-vc-MMAE
Description: as §2

THP-1 cells [8] = assay: as above; format: cell-based; conditions: 72 hours, 4-fold dilutions from 10 μg/mL ADC, vs aTNP-vc-MMAE
Description: as §2

[9] = target: T2, recombinant human (rh) Cathepsin B (Homo sapiens, UniProt P07858); assay: Cathepsin B linker cleavage assay (reducing SDS-PAGE); format: biochemical; conditions: incubation with activated rh cathepsin B, 37° C. overnight
T2 construct: purchased
Description: Reducing SDS-PAGE was performed by running a 4-12% NuPAGE Bis-Tris SDS-PAGE gel, loading 5 μg of total protein per lane, reduced by boiling for 3 minutes in sample buffer in the presence of 40 mM DTT. The gels were stained using a standard 0.1% coomassie blue stain. For cathepsin B linker cleavage assay, samples were treated with recombinant human (rh) Cathepsin B according to manufacturer's instructions, using 100 ng of activated rhCathepsin B to 20 μg ADC (mAb component), in a 25 mM MES, pH 5.0 buffer, and incubation at 37° C. overnight.

[10] = test system: human glioblastoma explant cells; assay: In vitro cell viability assay on glioblastoma explant cells; conditions: as FIG. 5 assay; vs aTNP-based control ADCs
Description: as §2
The ADCs 2h9-vc-MMAE and 2h9-vc-MMAF were tested by in vitro cell viability assays, performed as described in Example 1, for their capacity to specifically kill human glioblastoma explant cells. Glioblastoma explant cells are e.g. described in Staberg et al., 2017, Cell Oncol. 40: 21-32.

HT1080 cells [11] = assay: Cell cycle distribution analysis; format: cell-based; conditions: 3-day incubation, 1 μg/mL ADC
Description: (§3) Cell cycle analysis was performed using a Nucleocounter NC-3000 system (ChemoMetec Denmark), using the manufacturers standard protocol for analyzing the cell cycle distribution of a population of cells, based on the DNA content of each cell. The percentage of cells in Sub-G1, G1, S, or G2/M-phases of the cell cycle was established from histogram analysis using the NucleoView NC-3000 software.

KNS42 cells [12] = assay: Cell cycle distribution analysis; format: cell-based; conditions: 3-day incubation, 1 μg/mL ADC
Description: as §3

U937 cells [13] = assay: Cell cycle distribution analysis; format: cell-based; conditions: 3-day incubation, 1 μg/mL ADC
Description: as §3

THP-1 cells [14] = assay: Cell cycle distribution analysis; format: cell-based; conditions: 3-day incubation, 1 μg/mL ADC
Description: as §3

[15] = s.c., 3 mg/kg, 4 doses, of the 10 mice treated

B1: 2h9-vc-MMAE: uPARAP-directed ADC: mAb 2h9 conjugated to MC-VC-PAB-MMAE (Vedotin) linker-toxin (conjugate)
light: DIQMTQSPASQSASLGESVTITCLASQTIGTWLAWYQQKPGKSPQLLIYAATTLTDGVPSRFSGAGSGTKFSLKISSLQAEDFASYFCQEFFSTPFTFGSGTKLELKRADAAPTVSIFPPSSEQLTSGGASVVCFLNNFYPKDINVKWKIDGGERQNGVLNSWTDQDSKDSTYSMSSTLTLTKDEYERHNSYTCEATHKTSTSPIVKSFNRNEC
heavy: QVQLQQPGTELVRPGLSVKLSCKASGYTFTSYWMNWVKQRPGQGLEWIGMIHPSNDEKRINQKFKDKATLTVDKFSSTVYMQVSSPTSEDSAVYYCARGGGDYVGDYALDFWGQGTSVTVSSAKTTPPSVYPLAPGSAAQTNSMVTLGCLVKGYFPEPVTVTWNSGSLSSGVHTFPAVLQSDLYTLSSSVTVPSSTWPSETVTCNVAHPASSTKVDKKIVPRDCGCKPCICTVPEVSSVFIFPPKPKDVLTITLTPKVTCVVVDISKDDPEVQFSWFVDDVEVHTAQTQPREEQFNSTFRSVSELPIMHQDWLNGKEFKCRVNSAAFPAPIEKTISKTKGRPKAPQVYTIPPPKEQMAKDKVSLTCMITDFFPEDITVEWQWNGQPAENYKNTQPIMDTDGSYFIYSKLNVQKSNWEAGNTFTCSVLHEGLHNHHTEKSLSHSPGK
**Q.** Which Tumour growth (U937 xenograft tumour [1]; s.c. near the tumour, 3 mg/kg mAb component, 4 doses every 4 days) does the source give for B1 here?
**A.** The Tumour growth was “drastic decrease in tumour growth”.

**Q.** What about the Permanent cure rate (U937 xenograft tumour [1]; s.c., 3 mg/kg mAb component, 4 doses every 4 days, N=10) of the same molecule?
**A.** The Permanent cure rate was 50%.

**Q.** What about the “Mice free from tumour growth for a period of 90 days” value (U937 xenograft tumour [1]; [15]) of the same molecule?
**A.** Its value is 5 mice.

**Q.** What about the “Mice with almost immediate relapse of tumour growth following treatment” value (U937 xenograft tumour [1]; [15]) of the same molecule?
**A.** Its value is 5 mice.

**Q.** What about the “Affinity towards uPARAP following conjugation procedure” value [2] of the same molecule?
**A.** Its value is “retained affinity”.

**Q.** And the Tumour burden (U937 xenograft tumour [3]; i.v. tail vein, 5 mg/kg mAb component, 3 doses every 4 days, all 10 mice)?
**A.** The Tumour burden was “complete abrogation of the tumour burden”.

**Q.** What about the Permanent cure rate (U937 xenograft tumour [3]; i.v., 5 mg/kg mAb component, 3 doses every 4 days, N=10) of the same molecule?
**A.** Its Permanent cure rate is 100%.

**Q.** What about the “Adverse / detrimental effects on treated mice” value (U937 xenograft tumour [3]; regular inspection of the treated mice, antibody cross-reactive with murine uPARAP) of the same molecule?
**A.** Its value is “without any evident adverse effects; also recorded: no signs of detrimental effects were seen”.

**Q.** And the Overall cell viability [4]?
**A.** Its Overall cell viability is “remains unaffected”.

**Q.** What about the Overall cell viability (HT1080 cells [5]) of the same molecule?
**A.** Its Overall cell viability is “specific reduction in overall viability”.

**Q.** What about the Overall cell viability (KNS42 cells [6]) of the same molecule?
**A.** The Overall cell viability was “specific reduction in overall viability”.

**Q.** What about the Overall cell viability (U937 cells [7]) of the same molecule?
**A.** The Overall cell viability was “most sensitive cell line tested; also recorded: specific reduction in overall cell viability”.

**Q.** And the Overall cell viability (THP-1 cells [8])?
**A.** Its Overall cell viability is “specific reduction in overall viability”.

**Q.** And the “Linker cleavage by cathepsin B (gel mobility)” value [9]?
**A.** Its value is “reverts ADC gel mobility back to that of unmodified targeting antibody”.

**Q.** And the “Cell viability / sensitivity of glioblastoma explant cells” value [10]?
**A.** Its value is “very strong and specific sensitivity; also recorded: high degree of specific sensitivity”.

**Q.** What about the Cell cycle distribution (HT1080 cells [11]) of the same molecule?
**A.** Its Cell cycle distribution is “shift in cell cycle distribution towards the Sub-G1 and G2/M phases”.

**Q.** What about the Cell cycle distribution (KNS42 cells [12]) of the same molecule?
**A.** Its Cell cycle distribution is “shift in cell cycle distribution towards the Sub-G1 and G2/M phases”.

**Q.** What about the Cell cycle distribution (U937 cells [13]) of the same molecule?
**A.** Its Cell cycle distribution is “shift in cell cycle distribution towards the Sub-G1 and G2/M phases”.

**Q.** What about the Cell cycle distribution (THP-1 cells [14]) of the same molecule?
**A.** The Cell cycle distribution was “shift in cell cycle distribution towards the Sub-G1 and G2/M phases”.
